According to article PMC6237600:

Target: c-met receptor tyrosine kinase (native, on MM cell surface) (Homo sapiens) (UniProt P08581)
Assay: flow cytometry cell binding
Conditions: MM.1S cells; library signal subtracted; 5 mM MgCl2; 1x PBS, 4.5 g/L glucose, 5 mM MgCl2, 0.1 mg/mL yeast tRNA, 1 mg/mL BSA, 4 C, 30 min; 3e5 cells in 200 uL; pH not stated

c-met receptor tyrosine kinase (native, on MM cell surface) (Homo sapiens), sequence (P08581 25-1390): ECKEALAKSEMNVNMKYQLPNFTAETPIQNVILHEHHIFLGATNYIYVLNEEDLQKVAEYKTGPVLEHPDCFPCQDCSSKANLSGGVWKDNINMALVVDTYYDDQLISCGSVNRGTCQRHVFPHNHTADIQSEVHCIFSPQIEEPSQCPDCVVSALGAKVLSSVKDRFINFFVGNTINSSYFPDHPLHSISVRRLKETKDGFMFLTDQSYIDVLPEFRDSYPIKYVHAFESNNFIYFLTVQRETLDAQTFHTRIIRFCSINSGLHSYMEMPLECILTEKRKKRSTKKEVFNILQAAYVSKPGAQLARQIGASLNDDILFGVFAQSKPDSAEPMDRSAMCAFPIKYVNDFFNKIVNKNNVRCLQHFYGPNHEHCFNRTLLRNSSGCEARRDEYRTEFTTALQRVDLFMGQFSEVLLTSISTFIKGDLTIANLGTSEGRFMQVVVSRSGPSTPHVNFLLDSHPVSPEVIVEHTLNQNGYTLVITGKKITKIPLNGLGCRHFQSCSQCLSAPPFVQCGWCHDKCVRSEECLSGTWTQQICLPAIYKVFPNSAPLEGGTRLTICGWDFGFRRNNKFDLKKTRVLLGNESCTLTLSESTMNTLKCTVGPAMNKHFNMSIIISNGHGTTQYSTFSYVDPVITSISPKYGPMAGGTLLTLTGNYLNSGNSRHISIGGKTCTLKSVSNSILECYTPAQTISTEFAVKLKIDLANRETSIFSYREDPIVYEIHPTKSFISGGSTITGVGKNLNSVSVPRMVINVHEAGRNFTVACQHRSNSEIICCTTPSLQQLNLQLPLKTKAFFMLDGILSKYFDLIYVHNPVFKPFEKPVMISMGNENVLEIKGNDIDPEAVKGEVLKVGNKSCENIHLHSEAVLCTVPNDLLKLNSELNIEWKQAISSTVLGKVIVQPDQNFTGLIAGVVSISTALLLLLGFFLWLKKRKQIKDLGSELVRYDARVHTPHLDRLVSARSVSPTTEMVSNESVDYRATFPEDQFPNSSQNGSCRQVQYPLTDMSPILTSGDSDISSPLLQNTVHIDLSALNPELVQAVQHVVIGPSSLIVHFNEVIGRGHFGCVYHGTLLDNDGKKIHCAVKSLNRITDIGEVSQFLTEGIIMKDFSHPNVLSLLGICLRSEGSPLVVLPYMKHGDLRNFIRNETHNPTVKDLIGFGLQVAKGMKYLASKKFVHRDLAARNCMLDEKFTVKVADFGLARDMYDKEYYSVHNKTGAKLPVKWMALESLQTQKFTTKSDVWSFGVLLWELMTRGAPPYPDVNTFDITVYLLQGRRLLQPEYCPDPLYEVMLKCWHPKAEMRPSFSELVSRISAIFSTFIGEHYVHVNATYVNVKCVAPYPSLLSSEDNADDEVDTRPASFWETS

“ATCAGGCTGGATGGTAGCTCGGTCGGGGTGGGTGGGTTGGCAAGTCTGAT [SL1]” gave a Kd of 136 nM.
